The values that follow come from publication PMC5496025, “Abstracts from the 10th C1-inhibitor deficiency workshop” (Allergy, Asthma, and Clinical Immunology : Official Journal …, 2017).

In test [1] the target is human bradykinin B2 receptor mutant #2 (found in HAE patients) (human) (UniProt P30411). Kind of test: radioligand binding; competition binding with radiolabeled BK (3H-BK); HEK293T cells transiently transfected with human wild-type or mutant B2R.
Test [2] deals with human bradykinin B2 receptor mutant #1 (found in HAE patients) (human) (UniProt P30411). Described as above.
In test [3] the target is T1, commercially available active FXI (UniProt P03951 19-625).
T1 construct: active coagulation factor XI (cleaved into disulfide-linked heavy and light chains); also called active factor XI; source: bought: commercially available
Nature of the test: SDS-PAGE of enzyme/C1-INH complexes; molar equivalent quantities of active enzymes and of C1-INH. Particulars: both partners purified.

T1 sequence (P03951 19-625): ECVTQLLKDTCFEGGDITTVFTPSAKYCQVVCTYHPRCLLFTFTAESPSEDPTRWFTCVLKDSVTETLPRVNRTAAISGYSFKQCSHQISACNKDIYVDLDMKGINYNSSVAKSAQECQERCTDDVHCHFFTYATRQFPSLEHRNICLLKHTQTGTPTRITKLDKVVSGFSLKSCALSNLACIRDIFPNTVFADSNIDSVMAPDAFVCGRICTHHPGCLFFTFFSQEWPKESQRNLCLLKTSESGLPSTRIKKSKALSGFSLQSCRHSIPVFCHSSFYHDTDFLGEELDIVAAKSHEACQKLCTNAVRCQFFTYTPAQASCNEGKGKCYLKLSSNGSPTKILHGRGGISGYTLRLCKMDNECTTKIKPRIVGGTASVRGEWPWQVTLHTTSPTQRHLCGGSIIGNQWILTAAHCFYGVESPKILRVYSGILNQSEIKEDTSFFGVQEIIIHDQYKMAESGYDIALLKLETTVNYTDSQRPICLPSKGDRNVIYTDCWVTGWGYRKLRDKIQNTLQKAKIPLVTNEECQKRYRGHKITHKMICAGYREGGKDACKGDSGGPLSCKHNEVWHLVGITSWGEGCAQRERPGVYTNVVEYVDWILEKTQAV
Chain of human bradykinin B2 receptor mutant #2 (found in HAE patients) (human) (P30411 whole entry, stated change not applied): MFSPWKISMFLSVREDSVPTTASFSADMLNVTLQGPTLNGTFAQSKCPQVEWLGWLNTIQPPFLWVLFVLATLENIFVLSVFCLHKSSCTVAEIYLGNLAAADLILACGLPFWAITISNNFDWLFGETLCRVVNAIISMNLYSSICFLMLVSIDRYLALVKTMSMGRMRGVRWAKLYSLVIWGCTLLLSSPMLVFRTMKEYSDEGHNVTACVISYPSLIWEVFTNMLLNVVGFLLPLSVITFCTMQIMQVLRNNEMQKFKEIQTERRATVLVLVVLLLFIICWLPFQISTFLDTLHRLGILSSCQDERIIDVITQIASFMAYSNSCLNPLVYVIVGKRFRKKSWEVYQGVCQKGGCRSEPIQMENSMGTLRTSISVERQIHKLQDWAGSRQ
Chain of human bradykinin B2 receptor mutant #1 (found in HAE patients) (human) (P30411 whole entry, change not shown): as the sequence (P30411 whole entry, stated change not applied) above

With “Bradykinin (from UniProt P01042 381-389) (peptide)”, the figures for the affinity in test [1] and in test [2] were 0.46 nM and 0.35 nM, respectively.

B1: commercial plasma-derived C1-INH, further purified by ion-exchange chromatography (natural protein, UniProt P05155 23-500, looked up)
chain: NPNATSSSSQDPESLQDRGEGKVATTVISKMLFVEPILEVSSLPTTNSTTNSATKITANTTDEPTTQPTTEPTTQPTIQPTQPTTQLPTDSPTQPTTGSFCPGPVTLCSDLESHSTEAVLGDALVDFSLKLYHAFSAMKKVETNMAFSPFSIASLLTQVLLGAGENTKTNLESILSYPKDFTCVHQALKGFTTKGVTSVSQIFHSPDLAIRDTFVNASRTLYSSSPRVLSNNSDANLELINTWVAKNTNNKISRLLDSLPSDTRLVLLNAIYLSAKWKTTFDPKKTRMEPFHFKNSVIKVPMMNSKKYPVAHFIDQTLKAKVGQLQLSHNLSLVILVPQNLKHRLEDMEQALSPSVFKAIMEKLEMSKFQPTLLTLPRIKVTTSQDMLSIMEKLEFFDFSYDLNLCGLTEDPDLQVSAMQHQTVLELTETGVEAAAASAISVARTLLVFEVQQPFLFVLWDQQHKFPVFMGRVYDPRA
notes: source: bought: commercial plasma-derived C1-INH, further purified by ion-exchange chromatography
With B1, the binding result in test [3] was “binds”.
